Measured values from US20140120555A1.

Experiments:
[1] = target: human CXCR4 (Chemokine receptor 4) (human) (UniProt P61073); assay: FACS on U937 promyelocytic cancer cells (endogenous CXCR4), 10 µg/ml antibody
[2] = target: human CXCR4 (Chemokine receptor 4) (human) (UniProt P61073); assay: FACS on MDA-MB-231 breast cancer cells (endogenous CXCR4), 10 µg/ml antibody
[3] = target: human CXCR4 (Chemokine receptor 4) (human) (UniProt P61073); assay: FACS on NIH3T3-CXCR4 transfected cells, 10 µg/ml antibody
[4] = target: human CXCR4 (Chemokine receptor 4) (human) (UniProt P61073); assay: FACS on Hela cervix cancer cells (endogenous CXCR4), 10 µg/ml antibody

Sequence of human CXCR4 (Chemokine receptor 4) (human) (P61073 whole entry): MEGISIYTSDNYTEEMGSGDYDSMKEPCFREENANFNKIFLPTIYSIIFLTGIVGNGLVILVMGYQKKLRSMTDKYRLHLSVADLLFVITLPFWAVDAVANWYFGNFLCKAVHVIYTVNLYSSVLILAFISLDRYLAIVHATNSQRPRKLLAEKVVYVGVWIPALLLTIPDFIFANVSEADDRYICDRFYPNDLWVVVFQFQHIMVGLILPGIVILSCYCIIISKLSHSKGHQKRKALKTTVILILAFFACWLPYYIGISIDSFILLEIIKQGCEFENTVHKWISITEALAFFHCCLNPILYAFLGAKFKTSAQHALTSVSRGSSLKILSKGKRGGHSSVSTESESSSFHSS

MFI [1]: 645 MFI
MFI [2]: 239 MFI
MFI [3]: 2750 MFI
MFI [4]: 1850 MFI
B1: murine monoclonal antibody 515H7 (hybridoma CNCM I-4019) (antibody, V domains shown)
VH: EVNLVESGGGLVQPGGSLRLSCATSGFTFTDNYMSWVRQPPGKALEWLGFIRNKANGYTTDYSASVRGRFTISRDNSQSILYLQMNALRAEDSATYYCARDVGSNYFDYWGQGTTLTVSS
VL: DIVMSQSPSSLAVSAGEKVTMSCKSSQSLFNSRTRKNYLAWYQQKPGQSPKLLIYWASARDSGVPARFTGSGSETYFTLTISRVQAEDLAVYYCMQSFNLRTFGGGTKLEIK
modifications: Biotinylated when used as tracer in the competition assay of Example 3 (site not stated); unlabelled in Example 2.
